Patent US11110182B2, “Multifunctional RNA nanoparticles and methods for treating cancer and therapeutic resistant cancer” (University of Cincinnati, priority 2016, dated 2021)

B1: pRNA-HER2apt-siMED1: 3-WJ pRNA nanoparticle bearing a HER2-targeting RNA aptamer and two different MED1 siRNAs; strands p1 SEQ ID NO: 3, p2 SEQ ID NO: 4 (nucleic acid)
chain 1: GGACAGUGAAAGUGAGUCAAAGGAUCAAUCAUGGCCAAAGAUGUUACUUUGAGAGCCUU
chain 2: GGCUCUCAAAGUAACAUCUAAGGCCAUGUGUAUGUGGGGGGAGGACGAUGCGGUCUGCUGUGCUUGAUAUGCCCCAGACGACUCGCCCCCCACAUACUUUGUUGAUCCAAUGACUCACUUUCACUGUCCUU
modifications: 2'-F modification; third strand may lack entry; pRNA-HER2apt-siMED1, p1; pRNA-HER2apt-siMED1, p2
B2: pRNA-HER2apt^mut-siMED1: control pRNA nanoparticle with mutant HER2 aptamer; strands p1 SEQ ID NO: 5, p2 SEQ ID NO: 6 (nucleic acid)
chain 1: GGACAGUGAAAGUGAGUCAAAGGAUCAAUCAUGGCCAAAGAUGUUACUUUGAGAGCCUU
chain 2: GGCUCUCAAAGUAACAUCUAAGGCCAUGUGUAUGUGGGAUGAGGAGUAUGAAGAUACCUGUACUUGAUAUGCCCCAGACGACAUUCCCCCCACAUACUUUGUUGAUCCAAUGACUCACUUUCACUGUCCUU
modifications: pRNA-HER2apt(mut)-siMED1, p1; pRNA-HER2apt(mut)-siMED1, p2

System: MED1
Experiment: MED1 protein level by western blotting in BT474 cells
Format: cell-based, human
Conditions: 48 h; for MED1 protein level after transfection with lipofectamine 2000: BT474, transfected
Experimental: FIG. 3A) BT474 cells were incubated with 10 μg/mL control and pRNA-HER2apt-siMED1 nanoparticles for 48 h, and MED1 mRNA level was determined by real-time PCR. FIG. 3B) BT474 cells were incubated directly with (as indicated by -) or transfected with indicated pRNAs using lipofectamine 2000. At 48 h post treatment, MED1 protein levels were determined by western blotting. FIG. 3C) BT474 cells were treated with 10 μg/mL pRNA nanoparticles for 48 h and assayed for cell viability by MTT assay. FIG. 3D) Cells were treated as above and seeded for migration, and FIG. 3E) invasion transwell assays. Scale bar: 50 μm. FIG. 3F) After pRNA treatment for 48 h, the mRNA levels of ERα target genes TFF-1, FIG. 3G) c-Myc, and FIG. 3H) cyclin D1 in BT474 cells were determined by real-time PCR.
FIG. 7A) Six HER2-targeting RNA aptamers were selected from previous literatures, and their secondary structures were predicted using Srna-fold software. FIG. 7B) Six p2 strands containing the six different HER2 RNA aptamers were synthesized and annealed with the same p1 strand to generate six different pRNA-HER2apt-MED1 siRNA nanoparticles, respectively, followed by examination using 8% native PAGE gel electrophoresis. FIG. 7C) BT474 cells were treated with above pRNA nanoparticles for 48 h, and then MED1 protein level was determined by western blotting. […] FIG. 7D) 1 μg pRNA nanoparticles were incubated with recombinant Dicer enzyme (Genlantis) at 37° C. for 12 h, the product was separated by 8% native PAGE gel.
FIG. 9A) BT474 cells were treated with different concentrations of pRNA nanoparticles as indicated for 48 h. After that, MED1 protein level was determined by western blots, and FIG. 9B) the cell viability was determined by MTT assay.
Cell culture. Human breast cancer luciferase-overexpressing BT474 and MDA-MB-231 cells were maintained in DMEM medium (Hyclone, Thermo Scientific) supplemented with 10% fetal bovine serum (FBS, Sigma) and 1% penicillin/streptomycin (Corning) at 37° C. in a humidified atmosphere with 5% CO2.^53 • Generation of pRNA nanoparticles. The two strands of pRNA were synthesized with the DNA templates, which were amplified with overlapping primers (Sigma) by PCR methods, using a T7 promoter-controlled in vitro RNA transcription system as previously described^33 (Table 1). All the CTP and UTP used for synthesis of the pRNA nanoparticles were 2′-fluoro modified, except the control unmodified pRNA nanoparticles used in the stability assays. Following an overnight transcription at 37° C., RNA strands were purified using RNA clean and concentrator kits (ZYMO research) and examined by 8 M urea denatured 8% PAGE gel. pRNA nanoparticles were assembled by mixing the equal molar amounts of p1 and p2 strands and gradually annealing from 90° C. to 20° C. in 1×RNA annealing buffer containing 50 mM Tris-HCl (pH 7.5), 50 mM NaCl and 1 mM EDTA on a PCR machine. […] The hydrodynamic diameter and Tm value of pRNA nanoparticles were determined using dynamic light scattering and TGGE assay, respectively, as previously described.^54 The AFM imaging of the pRNA nanoparticles was performed at the University of Nebraska Medical Center imaging facility as previously reported.^55 Briefly, the pRNA nanoparticles (5 μL) were deposited on APS modified mica ^56 for a total of 2 min of incubation time. […]

Row | Molecule | dose dependence of decrease of MED1 protein level (BT474, different concentrations) | MED1 protein level (BT474, direct incubation) | MED1 protein level after transfection with lipofectamine 2000
1 | B1 | dose-dependent manner | greatly reduced | MED1 silencing
2 | B2 |  |  | MED1 silencing
